In this data set the target is Toxin B (Clostridium difficile, UniProt P18177 1-2366). The experiment in a line: SPR (single cycle kinetics, 1:1 model); […] (pH not stated); […]; SPR temperature not stated. Particulars: protein: commercial.
Toxin B, sequence (P18177 whole entry): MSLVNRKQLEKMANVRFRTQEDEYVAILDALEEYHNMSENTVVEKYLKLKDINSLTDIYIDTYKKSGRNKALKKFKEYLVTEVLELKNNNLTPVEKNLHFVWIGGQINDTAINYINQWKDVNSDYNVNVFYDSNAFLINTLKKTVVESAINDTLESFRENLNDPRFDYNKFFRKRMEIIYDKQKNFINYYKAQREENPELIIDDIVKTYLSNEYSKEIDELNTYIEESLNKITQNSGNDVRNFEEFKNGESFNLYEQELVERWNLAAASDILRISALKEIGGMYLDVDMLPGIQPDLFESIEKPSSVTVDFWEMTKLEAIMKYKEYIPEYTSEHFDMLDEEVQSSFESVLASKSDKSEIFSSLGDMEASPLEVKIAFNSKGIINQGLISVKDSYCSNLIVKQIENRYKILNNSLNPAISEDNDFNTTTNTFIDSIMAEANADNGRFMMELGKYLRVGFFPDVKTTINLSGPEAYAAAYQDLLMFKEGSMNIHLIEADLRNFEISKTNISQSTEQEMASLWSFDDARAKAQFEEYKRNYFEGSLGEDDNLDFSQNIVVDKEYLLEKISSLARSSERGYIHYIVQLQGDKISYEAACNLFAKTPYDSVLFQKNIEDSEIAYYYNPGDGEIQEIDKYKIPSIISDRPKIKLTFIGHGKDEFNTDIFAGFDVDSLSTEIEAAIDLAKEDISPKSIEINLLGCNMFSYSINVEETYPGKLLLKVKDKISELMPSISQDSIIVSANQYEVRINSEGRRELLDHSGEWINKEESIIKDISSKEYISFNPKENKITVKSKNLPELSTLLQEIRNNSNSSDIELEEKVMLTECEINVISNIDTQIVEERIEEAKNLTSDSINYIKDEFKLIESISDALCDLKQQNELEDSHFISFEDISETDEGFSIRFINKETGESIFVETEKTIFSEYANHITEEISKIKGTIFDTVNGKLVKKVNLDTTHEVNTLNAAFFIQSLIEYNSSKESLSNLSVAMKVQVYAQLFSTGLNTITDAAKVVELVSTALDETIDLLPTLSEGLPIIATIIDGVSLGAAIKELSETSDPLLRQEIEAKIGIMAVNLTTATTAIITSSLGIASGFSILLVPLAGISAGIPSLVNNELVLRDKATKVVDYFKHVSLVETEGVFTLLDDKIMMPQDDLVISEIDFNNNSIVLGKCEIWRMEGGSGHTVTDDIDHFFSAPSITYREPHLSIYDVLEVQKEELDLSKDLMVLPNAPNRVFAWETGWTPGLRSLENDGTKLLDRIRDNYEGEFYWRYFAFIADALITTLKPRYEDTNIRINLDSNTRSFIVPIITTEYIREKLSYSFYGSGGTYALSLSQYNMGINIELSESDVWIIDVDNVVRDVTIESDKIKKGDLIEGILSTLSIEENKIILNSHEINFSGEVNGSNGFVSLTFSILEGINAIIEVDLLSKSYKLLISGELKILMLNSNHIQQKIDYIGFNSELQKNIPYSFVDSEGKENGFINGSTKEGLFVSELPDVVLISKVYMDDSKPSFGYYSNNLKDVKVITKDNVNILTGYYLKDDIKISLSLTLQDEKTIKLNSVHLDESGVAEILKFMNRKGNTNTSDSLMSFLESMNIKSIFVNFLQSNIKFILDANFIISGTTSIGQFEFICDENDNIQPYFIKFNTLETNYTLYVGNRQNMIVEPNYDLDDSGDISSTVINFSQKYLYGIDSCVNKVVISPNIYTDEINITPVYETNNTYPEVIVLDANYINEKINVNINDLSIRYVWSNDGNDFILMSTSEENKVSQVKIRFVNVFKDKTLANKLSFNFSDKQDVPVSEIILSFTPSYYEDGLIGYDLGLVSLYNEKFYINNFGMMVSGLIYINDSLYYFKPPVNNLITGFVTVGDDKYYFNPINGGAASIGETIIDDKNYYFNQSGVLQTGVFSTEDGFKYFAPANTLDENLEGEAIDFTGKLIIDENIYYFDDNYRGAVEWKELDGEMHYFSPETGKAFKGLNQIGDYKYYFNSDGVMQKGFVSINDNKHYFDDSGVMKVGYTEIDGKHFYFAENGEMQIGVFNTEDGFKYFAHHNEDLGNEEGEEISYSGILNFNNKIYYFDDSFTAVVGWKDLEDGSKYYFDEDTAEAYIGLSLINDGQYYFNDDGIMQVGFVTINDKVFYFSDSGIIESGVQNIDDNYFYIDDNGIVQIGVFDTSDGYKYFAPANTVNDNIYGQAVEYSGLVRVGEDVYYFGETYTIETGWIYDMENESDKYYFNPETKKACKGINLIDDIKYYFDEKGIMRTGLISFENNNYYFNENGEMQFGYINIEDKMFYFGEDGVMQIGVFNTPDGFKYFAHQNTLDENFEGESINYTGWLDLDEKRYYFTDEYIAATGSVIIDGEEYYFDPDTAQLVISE

B1: R12.69 (SPR) (ssDNA)
DNA: TGTACCGTCTGAGCGATTCGTACCCTCGCTAATGCTGCTTGATGTGTGGCCTCGAATAGCCAGTCAGTGTTAAGGAGTGC
modifications: 5'-amino-C6
The molecule B1 registered an equilibrium dissociation constant (Kd) of 47.3 ± 13.7 nM.

What is called Kd is the constant that tells how readily two partners part at equilibrium. A high value points to weaker binding.

The values above are taken from paper PMC4334984, “In Vitro Selection of a Single-Stranded DNA Molecular Recognition Element against Clostridium difficile Toxin B and Sensitive Detection in Human Fecal Matter”.
